Measured values published in the supplement of paper PMC11246515.
± gives the standard deviation of the averaged measurements.

Assay: total protein half-life in vivo (active degradation + dilution); higher = more stable protein
[1] = E. coli NCM3722 delta-clpP delta-lon delta-hslV, growth: N-lim chemostat, doubling time 6 h
[2] = E. coli NCM3722 delta-clpP, growth: N-lim chemostat, doubling time 6 h
[3] = E. coli NCM3722 delta-hslV, growth: N-lim chemostat, doubling time 6 h
[4] = E. coli NCM3722 delta-lon, growth: N-lim chemostat, doubling time 6 h
[5] = E. coli NCM3722 delta-smpB, growth: N-lim chemostat, doubling time 6 h
[6] = wild type E. coli NCM3722, growth: C-lim chemostat, doubling time 3 h
[7] = wild type E. coli NCM3722, growth: C-lim chemostat, doubling time 6 h
[8] = wild type E. coli NCM3722, growth: C-lim chemostat, doubling time 12 h
[9] = wild type E. coli NCM3722, growth: N-lim chemostat, doubling time 6 h
[10] = wild type E. coli NCM3722, growth: N-lim chemostat, doubling time 12 h
[11] = wild type E. coli NCM3722, growth: P-lim chemostat, doubling time 6 h
[12] = wild type E. coli NCM3722, growth: P-lim chemostat, doubling time 12 h

Row | Sequence | total protein half-life in vivo [1] [h] | total protein half-life in vivo [2] [h] | total protein half-life in vivo [3] [h] | total protein half-life in vivo [4] [h] | total protein half-life in vivo [5] [h] | total protein half-life in vivo [6] [h] | total protein half-life in vivo [7] [h] | total protein half-life in vivo [8] [h] | total protein half-life in vivo [9] [h] | total protein half-life in vivo [10] [h] | total protein half-life in vivo [11] [h] | total protein half-life in vivo [12] [h]
1 | MKFIGKLLLYILIALLVAIAGLYFLLQTRWGAEHISAWVSENSDYHLAFGAMDHRFSAPSHIVLENVTFGRDGQPATLVAKSVDIALSSRQLTEPRHVDTILLENGTLNLTDQTAPLPFKADRLQLRDMAFNSPNSEWKLSAQRVNGGVVPWSPKAGKVLGTKAQIQFSAGSLSLNDVPATNVLIEGSIDNDRVTLTNLGADIARGTLTGNAQRNADGSWQVENLRMADIRLQSEKSLTDFFAPLRSVPSLQIGRLEVIDARLQGPDWAVTDLDLSLRNMTFSKDDWQTQEGKLSMNASEFIYGSLHLFDPIINTEFSPQGVALRQFTSRWEGGMVRTSGNWLRDGKTLILDDAAIAGLEYTLPKNWQQLWMETTPGWLNSLQLKRFSASRNLIIDIDPDFPWQLTALDGYGANLTLVTDHKWGVWSGSANLNAAAATFNRVDVRRPSLALTANSSTVNISELSAFTEKGILEATASVSQTPQRQTHISLNGRGVPVNILQQWGWPELPLTGDGNIQLTASGDIQANVPLKPTVSGQLHAVNAAKQQVTQTMNAGIVSSGEVTSTEPVR | 6.81 ± 0.67 | 6.85 ± 0.84 | 6.19 ± 0.067 | 6.3 ± 0.072 | 6.28 ± 0.42 | 3.2 ± 0.15 | 5.9 ± 0.12 | 11.4 ± 1 | 6.16 ± 0.12 | 12.6 ± 0.84 | 6.26 ± 0.23 | 12 ± 0.2
2 | MKFIIKLFPEITIKSQSVRLRFIKILTGNIRNVLKHYDETLAVVRHWDNIEVRAKDENQRLAIRDALTRIPGIHHILEVEDVPFTDMHDIFEKALVQYRDQLEGKTFCVRVKRRGKHDFSSIDVERYVGGGLNQHIESARVKLTNPDVTVHLEVEDDRLLLIKGRYEGIGGFPIGTQEDVLSLISGGFDSGVSSYMLMRRGCRVHYCFFNLGGAAHEIGVRQVAHYLWNRFGSSHRVRFVAINFEPVVGEILEKIDDGQMGVILKRMMVRAASKVAERYGVQALVTGEALGQVSSQTLTNLRLIDNVSDTLILRPLISYDKEHIINLARQIGTEDFARTMPEYCGVISKSPTVKAVKSKIEAEEEKFDFSILDKVVEEANNVDIREIAQQTEQEVVEVETVNGFGPNDVILDIRSIDEQEDKPLKVEGIDVVSLPFYKLSTKFGDLDQNKTWLLWCERGVMSRLQALYLREQGFNNVKVYRP | 4.16 ± 1 | 2.72 ± 0.25 | 2.86 ± 0.2 | 3.57 ± 0.082 | 2.827 ± 0.0041 | 3 ± 0.2 | 4.62 ± 0.53 | 7.48 ± 0.32 | 2.952 ± 0.021 | 3.99 ± 0.086 | 5.66 ± 1.4 | 8.76 ± 0.25
3 | MKFKVIALAALMGISGMAAQANELPDGPHIVTSGTASVDAVPDIATLAIEVNVAAKDAATAKKQADERVAQYISFLELNQIAKKDISSANLRTQPDYDYQDGKSILKGYRAVRTVEVTLRQLDKLNSLLDGALKAGLNEIRSVSLGVAQPDAYKDKARKAAIDNAIHQAQELANGFHRKLGPVYSVRYHVSNYQPSPMVRMMKADAAPVSAQETYEQAAIQFDDQVDVVFQLEPVDQQPAKTPAAQ [P0ADS6] | 6.45 ± 0.46 | 6.67 ± 0.7 | – | 6.77 ± 1.2 | 5.98 ± 0.096 | 3.2 ± 0.14 | 5.88 ± 0.43 | 12.1 ± 1.4 | 5.83 ± 0.65 | 12.1 ± 1.2 | 5.59 ± 0.14 | 11.7 ± 0.76
4 | MKFPGKRKSKHYFPVNARDPLLQQFQPENETSAAWVVGIDQTLVDIEAKVDDEFIERYGLSAGHSLVIEDDVAEALYQELKQKNLITHQFAGGTIGNTMHNYSVLADDRSVLLGVMCSNIEIGSYAYRYLCNTSSRTDLNYLQGVDGPIGRCFTLIGESGERTFAISPGHMNQLRAESIPEDVIAGASALVLTSYLVRCKPGEPMPEATMKAIEYAKKYNVPVVLTLGTKFVIAENPQWWQQFLKDHVSILAMNEDEAEALTGESDPLLASDKALDWVDLVLCTAGPIGLYMAGFTEDEAKRKTQHPLLPGAIAEFNQYEFSRAMRHKDCQNPLRVYSHIAPYMGGPEKIMNTNGAGDGALAALLHDITANSYHRSNVPNSSKHKFTWLTYSSLAQVCKYANRVSYQVLNQHSPRLTRGLPEREDSLEESYWDR [P0AEW6] | 4.78 ± 0.21 | 5.5 ± 1.9 | 4.38 ± 0.28 | 6.01 ± 2.3 | 4.03 ± 0.31 | 2.86 ± 0.38 | 5.87 ± 1.5 | 8.23 | 4.14 ± 0.24 | 8.14 ± 1.9 | 5.07 ± 0.35 | 9.56 ± 0.61
5 | MKFTQRLSLRVRLTLIFLILASVTWLLSSFVAWKQTTDNVDELFDTQLMLFAKRLSTLDLNEINAADRMAQTPNRLKHGHVDDDALTFAIFTHDGRMVLNDGDNGEDIPYSYQREGFADGQLVGEDDPWRFVWMTSPDGKYRIVVGQEWEYREDMALAIVAGQLIPWLVALPIMLIIMMVLLGRELAPLNKLALALRMRDPDSEKPLNATGVPSEVRPLVESLNQLFARTHAMMVRERRFTSDAAHELRSPLTALKVQTEVAQLSDDDPQARKKALLQLHSGIDRATRLVDQLLTLSRLDSLDNLQDVAEIPLEDLLQSSVMDIYHTAQQAKIDVRLTLNAHSIKRTGQPLLLSLLVRNLLDNAVRYSPQGSVVDVTLNADNFIVRDNGPGVTPEALARIGERFYRPPGQTATGSGLGLSIVQRIAKLHGMNVEFGNAEQGGFEAKVSW | 5.9 ± 0.21 | 6.26 ± 0.56 | 6.38 ± 0.11 | – | 5.66 ± 0.13 | 3.19 | – | 14.6 ± 1.6 | 5.98 ± 0.52 | 14.08 ± 0.14 | 6.13 ± 0.39 | 12.4 ± 3.3
6 | MKFVSFNINGLRARPHQLEAIVEKHQPDVIGLQETKVHDDMFPLEEVAKLGYNVFYHGQKGHYGVALLTKETPIAVRRGFPGDDEEAQRRIIMAEIPSLLGNVTVINGYFPQGESRDHPIKFPAKAQFYQNLQNYLETELKRDNPVLIMGDMNISPTDLDIGIGEENRKRWLRTGKCSFLPEEREWMDRLMSWGLVDTFRHANPQTADRFSWFDYRSKGFDDNRGLRIDLLLASQPLAECCVETGIDYEIRSMEKPSDHAPVWATFRR | 5.619 ± 0.036 | 5.58 ± 0.29 | 5.75 ± 0.011 | 6.04 ± 1.2 | 5.27 ± 0.3 | 3.14 ± 0.45 | 5.863 ± 0.013 | 10.9 ± 0.79 | 5.46 ± 0.4 | 10.8 ± 0.2 | 5.61 ± 0.2 | 11.9 ± 1.3
